# Target: PfPDI8 (PF3D7_0827900), 3xV5-tagged (P. falciparum (3D7))
# Assay: co-IP
substance,measurement,value
"PfBiP, Hsp70 Binding immunoglobulin Protein (natural protein)",other,2 fold

# — paper PMC7886143
